These results are taken from patent US20230181719A1, “NGR CONJUGATES AND USES THEREOF” (OSPEDALE SAN RAFFAELE S.R.L., priority 2020, published 2023).

Read-outs that look alike come from different tables or passages of the source. Positions of bridges follow the written chain, without caps; N, C: chain ends. No end group written: not given here.

One series has as its system RMA-T lymphoma. The class given is in vivo, mice. The procedure:
RMA-T tumor-bearing mice (6 per group) were treated 11 days after tumor implantation with 100 pg of S-NGR-hTNF (i.p.). Two hours later, the mice were injected (i.p.) with 50 µg of melphalan (generic preparation of melphalan, Tillomed).
B) Kaplan-Maier curves of vehicle, melphalan alone and in combination with S-NGR-hTNF.
C) Animal body weight change (mean ± SE, 6 mice per group). Arrows: pharmacological treatment.
Inventors have shown previously that low-dose murine S-NGR-TNF (100 pg) can enhance the antitumor activity of melphalan, an anticancer alkylating agent, in a murine lymphoma model (Corti et al., 2020). To assess whether S-NGR-hTNF can also synergize with melphalan, inventors performed similar experiments using the RMA-T lymphoma model. As expected, administration of melphalan (50 µg) in combination with S-NGR-hTNF (100 pg) induced stronger antitumor effects than melphalan alone (FIGS. 21A-B).

The conditions of series [1]: buffer; cited from earlier work.
The next series addresses αvβ3 (Homo sapiens, UniProt P05106+P06756). The note with it: cited from earlier work.
In series [2] the test system is malignant pleural mesothelioma (MPM). The note with it: cited from earlier work.
Series [3] concerns primary central nervous system lymphoma (PCNSL). To be noted: with R-CHOP; cited from earlier work.
The subject of the next series is L-M cells. Kind of series: LM-cells cytolytic assay (MTT). In kind it is cell-based. The note with it: actinomycin D, 20 h, murine proteins. From the text: FIG. 8. Biochemical and biological characterization of murine S-NGR-TNF and NGR-TNF. A) SDS-PAGE under reducing (βMe +) and non-reducing conditions (βMe -) of murine S-NGR-TNF, NGR-TNF and TNF. Arrows: bands corresponding to monomeric subunits (mon) and reducible dimers (dim). B) Representative mass spectra of murine NGR-TNF, TNF and S-NGR-TNF as determined by a Q Exactive HF mass spectrometer. Expected average masses are shown. C) Cytotoxic activity of TNF, NGR-TNF and S-NGR-TNF against L-M cells. L-M cells were incubated in DMEM medium supplemented with 2 mM glutamine, 100 U/ml penicillin, 100 µg/ml streptomycin, 0.25 µg/ml amphotericin-B, 10% fetal bovine serum, 2 µg/ml actinomycin D and TNF, NGR-TNF or S-NGR-TNF at the indicated doses (20 h at 37° C., 5% CO2). Cell viability was quantified by standard 3-(4,5-dimethylthiazol-2-yl)-2,5-diphenyltetrazolium bromide (MTT) assay. D) Binding of TNF, NGR-TNF and S-NGR-TNF to sTNF-R1 (Etanercept). Microtiterplates were precoated with or without the indicated amount of sTNF-R1 (for 16 h), washed with PBS, blocked with PBS containing 3% milk, 1% BSA (binding buffer, 1 h) and incubated with the indicated amounts of TNF, NGR-TNF or S-NGR-TNF diluted in binding buffer (for 1.5 h). The binding of each protein to sTNF-R1 was then detected using a polyclonal anti-murine TNF (IP301, 5 µg/ml in binding buffer, 1 h) followed by a polyclonal goat anti-rabbit antibody conjugated with horseradish peroxidase (1:1000 in binding buffer, 1 h) and o-phenylendiammine as chromogenic substrate.
To assess whether the addition of a serine residue to NGR-TNF affects its capability to recognize the TNF receptors and, consequently, its biological activity, inventors then analyzed the cytotoxic activity of TNF, NGR-TNF and S-NGR-TNF in the LM-cells cytolytic assay.

Series [4] relates to endothelial EA.hy926 cells. The series can be described thus: EA.hy926 endothelial cell adhesion assay on protein-coated microtiterplates. In kind it is cell-based. To be noted: plates coated in PBS, no forced deamidation. The method, then:
FIG. 12. […] A) Adhesion of endothelial EA.hy926 cells to 96-wells microtiterplates coated with different amounts of murine TNF, NGR-TNF and S-NGR-TNF in 150 mM sodium chloride, 50 mM sodium phosphate buffer, pH 7.4 (PBS) (16 h). Each well was blocked with 2% BSA in PBS containing calcium chloride and magnesium chloride (DPBS, 30 min), seeded with 40.000 endothelial EA.hy926 cells in DPBS supplemented with 0.1% BSA (DPBS-B), and left to incubate for 2 h at 37° C., 5% CO2. After washing with DMEM-B, adherent cells were stained with crystal violet and quantified by spectrophotometric measurements at 570 nm. B) Microtiterplates pre-coated with 1 µg/ml of murine NGR-TNF or S-NGR-TNF in PBS (for 16 h) were incubated 0.1 M ammonium bicarbonate buffer, pH 8.5 (Ambic) at 37° C. for the indicated time to promote NGR deamidation. EA.hy926 cell adhesion assay was then performed as described above.
This behavior likely reflects a further improvement in the CNGRCG (SEQ ID NO: 1) stability when fused to TNF.

The subject of a further series is WEHI-164 fibrosarcoma. The series can be described thus: Low-dose treatment in subcutaneous WEHI-164 fibrosarcoma murine model. The class given is in vivo. To be noted: 25 or 50 pg, i.p. The method, then: FIG. 14. […] Balb/c mice (6-7 weeks old, weighing 18-20 g) were injected, s.c., with 1.5×10^6 WEHI-164 cells in the left flank and treated 5 days after tumor implantation (i.p.) with 25 or 50 pg of murine NGR-TNF or S-NGR-TNF in 0.9% sodium chloride, containing 100 µg/ml endotoxin-free human serum albumin (arrows). A) Tumor volumes after treatment (mean±SE, 6 mice per group). B) Tumor weight at day 15 (cumulative data of the two groups treated with 25 and 50 pg of drugs). *, P<0.05, **P<0.01 by unpaired t test of the area under the curve for each tumor (GraphPad Prism software).
To assess whether the addition of the Ser residue to NGR-TNF might affect its anti-tumor activity at low dose, inventors then analyzed the therapeutic activity of NGR-TNF and S-NGR-TNF (25 or 50 pg, i.p.) using the subcutaneous WEHI-164 fibrosarcoma murine model.

The subject of another series is RMA lymphoma. In kind it is in vivo, mice. To be noted: 100 pg i.p., melphalan two hours later. The procedure: FIG. 15. […] C57BL/6 mice (6-7 weeks old, weighing 18-20 g) were challenged with subcutaneous injection in the left flank of 7×10^4 RMA cells. Mice bearing RMA lymphomas (6 per group) were treated 10-11 days (after tumor implantation with 100 pg of murine NGR-TNF or S-NGR-TNF (i.p.). Two hours later, the mice were injected with the indicated dose of melphalan (i.p.). All proteins were diluted with 0.9% sodium chloride, containing 100 µg/ml endotoxin-free human albumin. Tumor growth was monitored daily by measuring the tumors with calipers. A-B) Tumor volume change of two independent experiments are shown (mean±SE). […] C) Tumor bearing-animals were treated at day 10 after tumor implantation as indicated above using the indicated dose of S-NGR-TNF and the generic preparation of melphalan (Melphalan-Tillomed, from Tillomed Italia). RMA tumor weight at day 20 are shown (mean±SE). *, P<0.05, **P<0.01 by unpaired t test analysis with the GraphPad Prism software.
Effect of melphalan alone or in combination with low-dose murine S-NGR-TNF on the body weight and tumor growth of RMA-T lymphoma-bearing mice. Six tumor-bearing mice were injected with the indicated doses of S-NGR-TNF (i.p) and, two hours later, with the generic preparation of melphalan (Melphalan-Tillomed) (i.p.).
Finally, to assess whether low-dose S-NGR-TNF can exert synergistic effects with chemotherapy, as previously observed for NGR-TNF, inventors performed in vivo experiments with S-NGR-TNF and NGR-TNF in combination with melphalan, a chemotherapeutic drug, using the murine RMA lymphoma model (FIG. 15).

Setting [5] is: S-NGR-hTNF 100 pg in combination with melphalan 50 µg.

Sequence of αvβ3 (P06756 31-889 limits assumed): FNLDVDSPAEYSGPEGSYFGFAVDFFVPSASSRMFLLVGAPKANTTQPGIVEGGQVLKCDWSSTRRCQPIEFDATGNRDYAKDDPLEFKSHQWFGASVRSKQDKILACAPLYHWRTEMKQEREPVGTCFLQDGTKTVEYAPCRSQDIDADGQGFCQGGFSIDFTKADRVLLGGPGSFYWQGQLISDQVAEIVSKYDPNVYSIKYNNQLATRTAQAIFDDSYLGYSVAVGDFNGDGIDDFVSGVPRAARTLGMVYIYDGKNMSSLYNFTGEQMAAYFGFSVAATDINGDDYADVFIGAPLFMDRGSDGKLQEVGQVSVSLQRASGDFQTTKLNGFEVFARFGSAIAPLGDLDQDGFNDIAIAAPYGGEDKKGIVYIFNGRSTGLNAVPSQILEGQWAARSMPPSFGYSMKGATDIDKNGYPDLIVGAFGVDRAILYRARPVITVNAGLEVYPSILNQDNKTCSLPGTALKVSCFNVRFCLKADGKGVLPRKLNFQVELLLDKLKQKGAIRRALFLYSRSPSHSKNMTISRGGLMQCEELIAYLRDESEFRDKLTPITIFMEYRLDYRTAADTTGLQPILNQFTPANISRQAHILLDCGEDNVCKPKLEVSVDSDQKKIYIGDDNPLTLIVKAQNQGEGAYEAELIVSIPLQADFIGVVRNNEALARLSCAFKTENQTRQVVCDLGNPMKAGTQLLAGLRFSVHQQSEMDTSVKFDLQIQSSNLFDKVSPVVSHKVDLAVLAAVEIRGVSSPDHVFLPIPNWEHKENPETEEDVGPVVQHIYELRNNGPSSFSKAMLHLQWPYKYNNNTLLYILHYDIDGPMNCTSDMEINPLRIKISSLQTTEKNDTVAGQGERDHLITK
Sequence of αvβ3 (P06756 891-1048 partner limits assumed): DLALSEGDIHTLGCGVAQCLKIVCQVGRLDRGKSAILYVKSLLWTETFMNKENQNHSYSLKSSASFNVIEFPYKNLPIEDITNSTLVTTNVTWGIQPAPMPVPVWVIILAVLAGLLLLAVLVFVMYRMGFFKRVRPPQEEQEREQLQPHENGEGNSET
Sequence of αvβ3 (P05106 27-788): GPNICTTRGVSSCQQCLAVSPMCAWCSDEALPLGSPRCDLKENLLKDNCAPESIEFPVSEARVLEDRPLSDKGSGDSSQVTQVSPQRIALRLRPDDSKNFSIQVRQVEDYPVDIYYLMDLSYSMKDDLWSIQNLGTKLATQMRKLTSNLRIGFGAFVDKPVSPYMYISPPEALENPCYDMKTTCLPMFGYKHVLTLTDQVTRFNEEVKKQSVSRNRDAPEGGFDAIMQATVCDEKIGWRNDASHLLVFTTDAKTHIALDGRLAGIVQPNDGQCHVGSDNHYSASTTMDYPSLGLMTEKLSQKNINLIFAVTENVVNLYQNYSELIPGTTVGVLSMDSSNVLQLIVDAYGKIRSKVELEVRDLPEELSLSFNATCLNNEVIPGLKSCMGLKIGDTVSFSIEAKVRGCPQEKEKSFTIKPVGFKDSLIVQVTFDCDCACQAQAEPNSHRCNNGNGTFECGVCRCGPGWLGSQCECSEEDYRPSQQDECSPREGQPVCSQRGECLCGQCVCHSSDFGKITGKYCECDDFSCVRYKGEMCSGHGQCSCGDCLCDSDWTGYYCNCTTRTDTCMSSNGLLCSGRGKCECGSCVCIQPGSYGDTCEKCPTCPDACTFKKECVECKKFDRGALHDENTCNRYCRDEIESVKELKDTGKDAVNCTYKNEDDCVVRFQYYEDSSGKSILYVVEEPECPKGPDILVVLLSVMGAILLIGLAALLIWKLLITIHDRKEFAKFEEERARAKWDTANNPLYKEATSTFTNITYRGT

Turning to `N[C@@H](Cc1ccc(N(CCCl)CCCl)cc1)C(=O)O` [melphalan, reference compound], the median survival with RMA-T lymphoma (melphalan 50 µg alone) was around 28 days.

“CNGRC (SEQ ID NO:5) (disulfide 1-5 (inferred); listed as Homo sapiens)”: the deamidation half-life in series [1] is 4 to 5 h.

For “CisoDGRC (SEQ ID NO:41) (isoaspartate; disulfide cyclized; MOD_RES (1)..(1) Ciso or acetyl-Ciso or iso) [deamidation product of CNGRC]”, the “affinity for αvβ3 greater than αvβ5, αvβ6, αvβ8, and α5β1” value with αvβ3 is 10-100 fold.

As for “S-NGR-hTNF: Human SCNGRCG-TNF fusion protein expressed in E. coli (SEQ ID NO:27/28)”, in the series with RMA-T lymphoma (setting [5]), the median survival stood at 36.5 days and the “toxicity of melphalan, judged from loss of animal weight” value is “without increasing its toxicity”.

“human NGR-TNF: CNGRCG fused to the human TNF sequence, tested in Phase II and III clinical studies”: in [2] (0.8 µg/m^2, 1 h infusion), the “disease control in previously treated patients” value is on record as “about half”. For the same molecule, the “duration of disease control” value in [2] (triweekly cohort) is 4.4 months. Further, in [2] (weekly cohort), the “duration of disease control” value is recorded as 9.1 months. In series [3], the complete responses was 50% and the responses is 75%.

B1: NGR-TNF: Murine CNGRCG-TNF fusion protein, conventional first-generation conjugate used as comparator (protein)
chain: CNGRCGLRSSSQNSSDKPVAHVVANHQVEEQLEWLSQRANALLANGMDLKDNQLVVPADGLYLVYSQVLFKGQGCPDYVLLTHTVSRFAISYQEKVNLLSAVKSPCPKDTPEGAELKPWYEPIYLGGVFQLEKGDQLSAEVNLPKYLDFAESGQVYFGVIAL
On to B1, for which the EC50 cytotoxic activity entry in the series on L-M cells is “very similar”. For the same molecule, in [4], the “EA.hy926 cell adhesion to coated plates” value is given as “cell adhesion was observed”. In the series with WEHI-164 fibrosarcoma, the toxicity entry is listed as “No evidence of toxicity” and the tumor growth result is given as “delayed tumor growth to similar extent”. Further, in the series on RMA lymphoma, the “efficacy of melphalan in combination” value is “could enhance the efficacy of melphalan”.
